# Patent US20230002480A1
# Legend:
# Assay in all cases: cell-based or functional assay
# [1] = molecular target: HIV-1 Env of pseudovirus 1006_11_C3_1601 (HIV-1)
# [2] = molecular target: HIV-1 Env of pseudovirus 1056_10_TA11_1826 (HIV-1)
# [3] = molecular target: HIV-1 Env of pseudovirus 1394C9G1(Rev-) (HIV-1)
# [4] = molecular target: HIV-1 Env of pseudovirus 191084 B7-19 (HIV-1)
# [5] = molecular target: HIV-1 Env of pseudovirus 246F C1G (HIV-1)
# [6] = molecular target: HIV-1 Env of pseudovirus 620345.c01 (HIV-1)
# [7] = molecular target: HIV-1 Env of pseudovirus BJOX010000.06.2 (HIV-1)
# [8] = molecular target: HIV-1 Env of pseudovirus C2101.c01 (HIV-1)
# [9] = molecular target: HIV-1 Env of pseudovirus Ce0393_C3 (HIV-1)
# [10] = molecular target: HIV-1 Env of pseudovirus Ce1172_H1 (HIV-1)
# [11] = molecular target: HIV-1 Env of pseudovirus Ce703010054_2A2 (HIV-1)
# [12] = molecular target: HIV-1 Env of pseudovirus Ce704809221_1B3 (HIV-1)
# [13] = molecular target: HIV-1 Env of pseudovirus Du156.12 (HIV-1)
# [14] = molecular target: HIV-1 Env of pseudovirus Du422.1 (HIV-1)
# [15] = molecular target: HIV-1 Env of pseudovirus PVO.4 (HIV-1)
# [16] = molecular target: HIV-1 Env of pseudovirus Q769.d22 (HIV-1)
# [17] = molecular target: HIV-1 Env of pseudovirus QH0692.42 (HIV-1)
# [18] = molecular target: HIV-1 Env of pseudovirus R2184.c04 (HIV-1)
# [19] = molecular target: HIV-1 Env of pseudovirus R3265.c06 (HIV-1)
# [20] = molecular target: HIV-1 Env of pseudovirus SC05_8C11_2344 (HIV-1)
# [21] = molecular target: HIV-1 Env of pseudovirus SC422661.8 (HIV-1)
# [22] = molecular target: HIV-1 Env of pseudovirus T251-18 (HIV-1)
# [23] = molecular target: HIV-1 Env of pseudovirus T278-50 (HIV-1)
# [24] = molecular target: HIV-1 Env of pseudovirus THRO4156.18 (HIV-1)
# [25] = molecular target: HIV-1 Env of pseudovirus WITO4160.33 (HIV-1)
# [26] = molecular target: HIV-1 Env of pseudovirus X1193_c1 (HIV-1)
# [27] = molecular target: HIV-1 Env of pseudovirus X2088_c9 (HIV-1)
# [28] = molecular target: HIV-1 Env of pseudovirus ZM214M.PL15 (HIV-1)
# [29] = molecular target: HIV-1 Env of pseudovirus ZM233M.PB6 (HIV-1)
# [30] = molecular target: HIV-1 Env of pseudovirus ZM249M.PL1 (HIV-1)
substance,measurement,setting,value
N49P7 (antibody),neutralization IC50,[1],0.044 mg/L
same,neutralization IC80,[1],0.158 mg/L
same,neutralization MPI,[1],100
same,neutralization IC50,[2],0.141 mg/L
same,neutralization IC80,[2],0.468 mg/L
same,neutralization MPI,[2],100
same,neutralization IC50,[3],3.84 mg/L
same,neutralization IC80,[3],21.1 mg/L
same,neutralization MPI,[3],94
same,neutralization IC50,[4],0.047 mg/L
same,neutralization IC80,[4],0.142 mg/L
same,neutralization MPI,[4],100
same,neutralization IC50,[5],0.094 mg/L
same,neutralization IC80,[5],0.255 mg/L
same,neutralization MPI,[5],100
same,neutralization IC50,[6],23.2 mg/L
same,neutralization IC80,[6],47.9 mg/L
same,neutralization MPI,[6],82
same,neutralization IC50,[7],0.085 mg/L
same,neutralization IC80,[7],0.592 mg/L
same,neutralization MPI,[7],100
same,neutralization IC50,[8],0.06 mg/L
same,neutralization IC80,[8],0.34 mg/L
same,neutralization MPI,[8],100
same,neutralization IC50,[9],0.195 mg/L
same,neutralization IC80,[9],0.802 mg/L
same,neutralization MPI,[9],100
same,neutralization IC50,[10],8.5 mg/L
same,neutralization IC80,[10],37.5 mg/L
same,neutralization MPI,[10],92
same,neutralization IC50,[11],0.132 mg/L
same,neutralization IC80,[11],0.466 mg/L
same,neutralization MPI,[11],100
same,neutralization IC50,[12],0.141 mg/L
same,neutralization IC80,[12],0.932 mg/L
same,neutralization MPI,[12],100
same,neutralization IC50,[13],0.032 mg/L
same,neutralization IC80,[13],0.086 mg/L
same,neutralization MPI,[13],100
same,neutralization IC50,[14],4.5 mg/L
same,neutralization IC80,[14],19.5 mg/L
same,neutralization MPI,[14],93
same,neutralization IC50,[15],0.107 mg/L
same,neutralization IC80,[15],0.365 mg/L
same,neutralization MPI,[15],100
same,neutralization IC50,[16],0.025 mg/L
same,neutralization IC80,[16],0.111 mg/L
same,neutralization MPI,[16],100
same,neutralization IC50,[17],0.663 mg/L
same,neutralization IC80,[17],2.41 mg/L
same,neutralization MPI,[17],100
same,neutralization IC50,[18],0.011 mg/L
same,neutralization IC80,[18],0.031 mg/L
same,neutralization MPI,[18],100
same,neutralization IC50,[19],0.048 mg/L
same,neutralization IC80,[19],0.282 mg/L
same,neutralization MPI,[19],100
same,neutralization IC50,[20],0.164 mg/L
same,neutralization IC80,[20],0.403 mg/L
same,neutralization MPI,[20],100
same,neutralization IC50,[21],0.114 mg/L
same,neutralization IC80,[21],0.32 mg/L
same,neutralization MPI,[21],100
same,neutralization IC50,[22],0.178 mg/L
same,neutralization IC80,[22],0.62 mg/L
same,neutralization MPI,[22],100
same,neutralization IC50,[23],22.3 mg/L
same,neutralization IC80,[23],> 50 mg/L
same,neutralization MPI,[23],75
same,neutralization IC50,[24],2.34 mg/L
same,neutralization IC80,[24],12.4 mg/L
same,neutralization MPI,[24],99
same,neutralization IC50,[25],0.084 mg/L
same,neutralization IC80,[25],0.248 mg/L
same,neutralization MPI,[25],100
same,neutralization IC50,[26],0.016 mg/L
same,neutralization IC80,[26],0.06 mg/L
same,neutralization MPI,[26],100
same,neutralization IC50,[27],0.116 mg/L
same,neutralization IC80,[27],0.338 mg/L
same,neutralization MPI,[27],100
same,neutralization IC50,[28],0.213 mg/L
same,neutralization IC80,[28],0.953 mg/L
same,neutralization MPI,[28],100
same,neutralization IC50,[29],0.226 mg/L
same,neutralization IC80,[29],0.774 mg/L
same,neutralization MPI,[29],100
same,neutralization IC50,[30],0.039 mg/L
same,neutralization IC80,[30],0.134 mg/L
same,neutralization MPI,[30],100
PG9 (antibody),"IC50, titer in TZM.bl cells",[1],0.366 mg/L
same,"IC80, titer in TZM.bl cells",[1],1.91 mg/L
same,"IC50, titer in TZM.bl cells",[2],6.34 mg/L
same,"IC80, titer in TZM.bl cells",[2],38.3 mg/L
same,"IC50, titer in TZM.bl cells",[3],0.029 mg/L
same,"IC80, titer in TZM.bl cells",[3],0.114 mg/L
same,"IC50, titer in TZM.bl cells",[4],0.043 mg/L
same,"IC80, titer in TZM.bl cells",[4],0.202 mg/L
same,"IC50, titer in TZM.bl cells",[5],> 50 mg/L
same,"IC80, titer in TZM.bl cells",[5],> 50 mg/L
same,"IC50, titer in TZM.bl cells",[9],0.02 mg/L
same,"IC80, titer in TZM.bl cells",[9],0.055 mg/L
same,"IC50, titer in TZM.bl cells",[10],0.07 mg/L
same,"IC80, titer in TZM.bl cells",[10],0.206 mg/L
same,"IC50, titer in TZM.bl cells",[11],0.022 mg/L
same,"IC80, titer in TZM.bl cells",[11],0.103 mg/L
same,"IC50, titer in TZM.bl cells",[12],0.037 mg/L
same,"IC80, titer in TZM.bl cells",[12],0.137 mg/L
same,"IC50, titer in TZM.bl cells",[13],0.026 mg/L
same,"IC80, titer in TZM.bl cells",[13],0.19 mg/L
same,"IC50, titer in TZM.bl cells",[14],0.614 mg/L
same,"IC80, titer in TZM.bl cells",[14],10.4 mg/L
same,"IC50, titer in TZM.bl cells",[15],10.6 mg/L
same,"IC80, titer in TZM.bl cells",[15],> 50 mg/L
same,"IC50, titer in TZM.bl cells",[16],0.025 mg/L
same,"IC80, titer in TZM.bl cells",[16],0.068 mg/L
same,"IC50, titer in TZM.bl cells",[17],> 50 mg/L
same,"IC80, titer in TZM.bl cells",[17],> 50 mg/L
same,"IC50, titer in TZM.bl cells",[20],0.892 mg/L
same,"IC80, titer in TZM.bl cells",[20],4.28 mg/L
same,"IC50, titer in TZM.bl cells",[21],0.553 mg/L
same,"IC80, titer in TZM.bl cells",[21],7.05 mg/L
same,"IC50, titer in TZM.bl cells",[24],24.5 mg/L
same,"IC80, titer in TZM.bl cells",[24],> 50 mg/L
same,"IC50, titer in TZM.bl cells",[25],0.01 mg/L
same,"IC80, titer in TZM.bl cells",[25],0.037 mg/L
same,"IC50, titer in TZM.bl cells",[28],> 50 mg/L
same,"IC80, titer in TZM.bl cells",[28],> 50 mg/L
same,"IC50, titer in TZM.bl cells",[29],0.01 mg/L
same,"IC80, titer in TZM.bl cells",[29],0.026 mg/L
same,"IC50, titer in TZM.bl cells",[30],0.166 mg/L
same,"IC80, titer in TZM.bl cells",[30],1.41 mg/L
10-1074 (antibody),"IC50, titer in TZM.bl cells",[1],0.003 mg/L
same,"IC80, titer in TZM.bl cells",[1],0.013 mg/L
same,"IC50, titer in TZM.bl cells",[2],0.038 mg/L
same,"IC80, titer in TZM.bl cells",[2],0.272 mg/L
same,"IC50, titer in TZM.bl cells",[3],0.05 mg/L
same,"IC80, titer in TZM.bl cells",[3],0.191 mg/L
same,"IC50, titer in TZM.bl cells",[4],0.032 mg/L
same,"IC80, titer in TZM.bl cells",[4],0.128 mg/L
same,"IC50, titer in TZM.bl cells",[5],0.022 mg/L
same,"IC80, titer in TZM.bl cells",[5],0.111 mg/L
same,"IC50, titer in TZM.bl cells",[9],> 50 mg/L
same,"IC80, titer in TZM.bl cells",[9],> 50 mg/L
same,"IC50, titer in TZM.bl cells",[10],0.047 mg/L
same,"IC80, titer in TZM.bl cells",[10],0.166 mg/L
same,"IC50, titer in TZM.bl cells",[11],> 50 mg/L
same,"IC80, titer in TZM.bl cells",[11],> 50 mg/L
same,"IC50, titer in TZM.bl cells",[12],0.139 mg/L
same,"IC80, titer in TZM.bl cells",[12],0.696 mg/L
same,"IC50, titer in TZM.bl cells",[13],0.015 mg/L
same,"IC80, titer in TZM.bl cells",[13],0.076 mg/L
same,"IC50, titer in TZM.bl cells",[14],0.045 mg/L
same,"IC80, titer in TZM.bl cells",[14],0.166 mg/L
same,"IC50, titer in TZM.bl cells",[15],0.074 mg/L
same,"IC80, titer in TZM.bl cells",[15],0.36 mg/L
same,"IC50, titer in TZM.bl cells",[16],> 50 mg/L
same,"IC80, titer in TZM.bl cells",[16],> 50 mg/L
same,"IC50, titer in TZM.bl cells",[17],0.191 mg/L
same,"IC80, titer in TZM.bl cells",[17],0.929 mg/L
same,"IC50, titer in TZM.bl cells",[20],0.052 mg/L
same,"IC80, titer in TZM.bl cells",[20],0.123 mg/L
same,"IC50, titer in TZM.bl cells",[21],0.091 mg/L
same,"IC80, titer in TZM.bl cells",[21],0.418 mg/L
same,"IC50, titer in TZM.bl cells",[24],> 50 mg/L
same,"IC80, titer in TZM.bl cells",[24],> 50 mg/L
same,"IC50, titer in TZM.bl cells",[25],0.185 mg/L
same,"IC80, titer in TZM.bl cells",[25],2.11 mg/L
same,"IC50, titer in TZM.bl cells",[28],0.174 mg/L
same,"IC80, titer in TZM.bl cells",[28],2.37 mg/L
same,"IC50, titer in TZM.bl cells",[29],0.06 mg/L
same,"IC80, titer in TZM.bl cells",[29],0.349 mg/L
same,"IC50, titer in TZM.bl cells",[30],> 50 mg/L
same,"IC80, titer in TZM.bl cells",[30],> 50 mg/L
